Nine molecules from US20230405133A1, “PURIFIED MULTIVALENT PROTEIN-HYALURONIC ACID POLYMER CONJUGATES” (Valitor, Inc., priority 2022, published 2023) can be followed below.

For test [1], the target named is T1, Human VEGF 165 (human, UniProt P15692-4 27-191).
T1 construct: Loaded on the BLI probe as the ligand; also called BLI ligand Human VEGF 165 (Avi tag, R&D Systems AVI-293-050); not shown: Avi tag
The experiment in a line: BLI, VEGF binding affinity (KD, nM).

For test [2], the target named is T1, Human VEGF 165. The experiment in a line: BLI, VEGF 165 on probe, conjugate as analyte, t = 0; value is the limit of detection; t = 0, fresh conjugate, not aged. (Biolayer interferometry detects binding as a change in optical thickness at a sensor tip.)
Test [3] has as its target T1, Human VEGF 165. The experiment in a line: BLI; KD after 4 days at 37 °C against KD at t = 0.
In test [4] the target is T1, Human VEGF 165. As to the kind of experiment: BLI; KD after 14 days at 37 °C against KD at t = 0.
Test [5] has as its target T1, Human VEGF 165. As to the kind of experiment: BLI, VEGF 165 on probe; sample aged 4 days at 37 °C.
Test [6] addresses T1, Human VEGF 165. The experiment in a line: BLI, VEGF 165 on probe; sample aged 14 days at 37 °C.
Test [7] addresses T1, Human VEGF 165. The experiment in a line: BLI, VEGF 165 on probe, t = 0 (repeats Table 15); limit of detection.
Test [8] has as its target T1, Human VEGF 165. The experiment in a line: BLI, VEGF 165 on probe, conjugate as analyte, t = 0; value is the limit of detection.
The target in test [9] is T1, Human VEGF 165. The experiment in a line: BLI, VEGF 165 on probe, t = 0 (repeats Table 15).
Test [10] has as its target T1, Human VEGF 165. The experiment in a line: BLI, VEGF 165 on probe, conjugate as analyte, t = 0.
Test [11] has as its target T1, Human VEGF 165. As to the kind of experiment: BLI, VEGF 165 on probe; sample aged 4 days at 37 °C; limit of detection.

T1 sequence (P15692 other isoform, or with tags, fused parts or gaps limits assumed): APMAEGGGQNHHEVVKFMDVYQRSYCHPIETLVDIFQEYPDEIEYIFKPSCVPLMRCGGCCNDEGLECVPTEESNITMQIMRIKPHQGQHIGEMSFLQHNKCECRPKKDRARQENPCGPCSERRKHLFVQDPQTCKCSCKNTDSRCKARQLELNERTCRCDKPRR

B1: 2H10_5MUT_aH_CYS (unconjugated) (VHH)
VHH: QVQLVESGGGLVQPGGSLRLSCLASGRRFSIEAMGWYRQAPGKQRELVAIIDSGGSTDYVDSAKGRFTISRDNSKNTVYLQMNSLRAEDTAVYYCNVIGSSWYGRGLDYWGQGTLVTVSS
notes: Free peptide, not conjugated to hyaluronic acid
As to B1, the binding result in the test with Human VEGF 165 [1] is “binds”.

B2: 2H10_5MUT_aH_CYS MVP [140.3] (VHH)
VHH: QVQLVESGGGLVQPGGSLRLSCLASGRRFSIEAMGWYRQAPGKQRELVAIIDSGGSTDYVDSAKGRFTISRDNSKNTVYLQMNSLRAEDTAVYYCNVIGSSWYGRGLDYWGQGTLVTVSS
modifications: C-terminal Cys is the conjugation site
notes: Multivalent protein-hyaluronic acid conjugate
As for B2, in the test with Human VEGF 165 [1], the binding result was “binds”.

B3: Conjugate 15 (anti-VEGF VHH SEQ ID NO: 91 with aH linker SEQ ID NO: 21 on hyaluronic acid, intermediate 5-10) (VHH)
VHH: DVQLVESGGGLVQPGGSLRLSCAASGRTFSSYSMGWFRQAPGKEREFVVAISKGGYKYDAVSLEGRFTISRDNAKNTVYLQINSLRPEDTAVYYCASSRAYGSSRLRLADTYEYWGQGTLVTVSS
modifications: C-terminal Cys of the peptide linker bound by its thiol to the maleimide of the organic linker EMCH on hyaluronic acid (830 kDa)
notes: Multivalent peptide-hyaluronic acid conjugate (MVP); peptide valency 59; Method 5 intermediate 5-10, made with EMCH instead of MP2H; also called BI VHH anti-VEGF MVP
On to B3, for which the Kd with Human VEGF 165 [2] is < 1 pM.

B4: Conjugate 22 (anti-VEGF VHH SEQ ID NO: 91 with aH linker SEQ ID NO: 21 on hyaluronic acid, intermediate 1-10) (VHH)
VHH: DVQLVESGGGLVQPGGSLRLSCAASGRTFSSYSMGWFRQAPGKEREFVVAISKGGYKYDAVSLEGRFTISRDNAKNTVYLQINSLRPEDTAVYYCASSRAYGSSRLRLADTYEYWGQGTLVTVSS
modifications: C-terminal Cys of the peptide linker bound by its thiol to the maleimide of the organic linker MP2H on hyaluronic acid (830 kDa)
notes: Multivalent peptide-hyaluronic acid conjugate (MVP); peptide valency 18; Method 1 intermediate; also called BI VHH anti-VEGF MVP
Turning to B4, the “Change in KD to t = 0” value came out at 5870 fold with Human VEGF 165 [3] and 142 fold in the test with Human VEGF 165 [4]. The Kd was 5870 pM with Human VEGF 165 [5], 142 pM with Human VEGF 165 [6], < 1 pM with Human VEGF 165 [7] and < 1 pM with Human VEGF 165 [8].

B5: Conjugate 17 (anti-VEGF VHH SEQ ID NO: 91 on hyaluronic acid, intermediate 1-7) (VHH)
VHH: DVQLVESGGGLVQPGGSLRLSCAASGRTFSSYSMGWFRQAPGKEREFVVAISKGGYKYDAVSLEGRFTISRDNAKNTVYLQINSLRPEDTAVYYCASSRAYGSSRLRLADTYEYWGQGTLVTVSS
modifications: peptide bound through the organic linker MP2H to hyaluronic acid (830 kDa); site of attachment not stated
notes: Multivalent peptide-hyaluronic acid conjugate (MVP); peptide valency 90; Method 1 intermediate; also called BI VHH anti-VEGF MVP
As for B5, the Kd in the test with Human VEGF 165 [9] is 4 pM; with Human VEGF 165 [10], 4 pM; in the test with Human VEGF 165 [5] it was 713 pM; with Human VEGF 165 [6] it was 911 pM. For the same molecule, the “Change in KD to t = 0” value was found to be 178 fold in the test with Human VEGF 165 [3] and 228 fold in the test with Human VEGF 165 [4].

B6: Conjugate 23 (anti-VEGF VHH SEQ ID NO: 91 with aH linker SEQ ID NO: 21 on hyaluronic acid, intermediate 1-11) (VHH)
VHH: DVQLVESGGGLVQPGGSLRLSCAASGRTFSSYSMGWFRQAPGKEREFVVAISKGGYKYDAVSLEGRFTISRDNAKNTVYLQINSLRPEDTAVYYCASSRAYGSSRLRLADTYEYWGQGTLVTVSS
modifications: C-terminal Cys of the peptide linker bound by its thiol to the maleimide of the organic linker MP2H on hyaluronic acid (830 kDa)
notes: Multivalent peptide-hyaluronic acid conjugate (MVP); peptide valency 33; Method 1 intermediate; also called BI VHH anti-VEGF MVP
B6: the “Change in KD to t = 0” value turned out to be 6960 fold in the test with Human VEGF 165 [3] and 1950 fold with Human VEGF 165 [4]. The Kd with Human VEGF 165 [5] was 6960 pM; with Human VEGF 165 [6] it was 1950 pM; with Human VEGF 165 [7] it was < 1 pM; with Human VEGF 165 [8], < 1 pM.

B7: Conjugate 19 (anti-VEGF VHH SEQ ID NO: 91 on hyaluronic acid, intermediate 2-6) (VHH)
VHH: DVQLVESGGGLVQPGGSLRLSCAASGRTFSSYSMGWFRQAPGKEREFVVAISKGGYKYDAVSLEGRFTISRDNAKNTVYLQINSLRPEDTAVYYCASSRAYGSSRLRLADTYEYWGQGTLVTVSS
modifications: peptide bound through the organic linker MP2H to hyaluronic acid (830 kDa); site of attachment not stated
notes: Multivalent peptide-hyaluronic acid conjugate (MVP); peptide valency 108; Method 2 intermediate; also called BI VHH anti-VEGF MVP
Take B7: the “Change in KD to t = 0” value with Human VEGF 165 [3] stood at 185 fold. Also, the Kd was 185 pM in the test with Human VEGF 165 [5], < 1 pM with Human VEGF 165 [7] and < 1 pM in the test with Human VEGF 165 [8].

B8: Conjugate 18 (anti-VEGF VHH SEQ ID NO: 91 on hyaluronic acid, intermediate 1-7) (VHH)
VHH: DVQLVESGGGLVQPGGSLRLSCAASGRTFSSYSMGWFRQAPGKEREFVVAISKGGYKYDAVSLEGRFTISRDNAKNTVYLQINSLRPEDTAVYYCASSRAYGSSRLRLADTYEYWGQGTLVTVSS
modifications: peptide bound through the organic linker MP2H to hyaluronic acid (830 kDa); site of attachment not stated
notes: Multivalent peptide-hyaluronic acid conjugate (MVP); peptide valency 88; Method 1 intermediate; also called BI VHH anti-VEGF MVP
In the case of B8, the “Change in KD to t = 0” value in the test with Human VEGF 165 [3] was found to be 1 fold; in the test with Human VEGF 165 [4], 3670 fold. For the same molecule, the Kd is 3670 pM in the test with Human VEGF 165 [6], < 1 pM in the test with Human VEGF 165 [7], < 1 pM in the test with Human VEGF 165 [11] and < 1 pM with Human VEGF 165 [8].

B9: Conjugate 20 (anti-VEGF VHH SEQ ID NO: 91 on hyaluronic acid, intermediate 2-8) (VHH)
VHH: DVQLVESGGGLVQPGGSLRLSCAASGRTFSSYSMGWFRQAPGKEREFVVAISKGGYKYDAVSLEGRFTISRDNAKNTVYLQINSLRPEDTAVYYCASSRAYGSSRLRLADTYEYWGQGTLVTVSS
modifications: peptide bound through the organic linker MP2H to hyaluronic acid (830 kDa); site of attachment not stated
notes: Multivalent peptide-hyaluronic acid conjugate (MVP); peptide valency 91; Method 2 intermediate; also called BI VHH anti-VEGF MVP
Regarding B9, the “Change in KD to t = 0” value was 1 fold in the test with Human VEGF 165 [3] and 1440 fold with Human VEGF 165 [4]. For the same molecule, the Kd with Human VEGF 165 [6] was 1440 pM; with Human VEGF 165 [7], < 1 pM; in the test with Human VEGF 165 [11] it was < 1 pM; with Human VEGF 165 [8] it was < 1 pM.

The Kd is the constant that tells how readily two partners part at equilibrium. Low readings indicate tighter binding, high ones weaker binding.
